Data on two molecules can be found in publication PMC7498313, “The Sac10b homolog from Sulfolobus islandicus is an RNA chaperone”.

Data set [1] concerns the target T1, Sis10b K16A (Sulfolobus islandicus REY15A, UniProt F0NHH1 1-97, K16A).
T1 sequence: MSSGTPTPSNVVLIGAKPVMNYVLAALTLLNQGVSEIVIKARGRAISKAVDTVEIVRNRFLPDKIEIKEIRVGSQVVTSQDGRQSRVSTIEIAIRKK
Nature of the data set: EMSA; 37°C; slightly weaker than dsRNA; EMSA: 20 mM HEPES-NaOH pH 7.0, 1 mM DTT, 100 ug/ml BSA, 6% glycerol, 30 min at 25, 37 or 55°C; gel in 0.5x TBE at the same temperature. As to conditions: protein: recombinant; tags: none; chain copies: 2; label: 5' 32P; single strand. On the technique in general: A gel shift assay detects complexes by their altered migration in electrophoresis.

Data set [2] addresses T2, Sis10b K17R (Sulfolobus islandicus REY15A, UniProt F0NHH1 1-97, K17R).
T2 sequence: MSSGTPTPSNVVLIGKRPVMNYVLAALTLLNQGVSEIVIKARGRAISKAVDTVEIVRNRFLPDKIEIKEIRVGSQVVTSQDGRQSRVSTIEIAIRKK
The description is as above. As to conditions: protein: recombinant; tags: none; chain copies: 2; label: 5' 32P; single strand.

The target of data set [3] is T3, Sis10b K17A (Sulfolobus islandicus REY15A, UniProt F0NHH1 1-97, K17A).
T3 sequence: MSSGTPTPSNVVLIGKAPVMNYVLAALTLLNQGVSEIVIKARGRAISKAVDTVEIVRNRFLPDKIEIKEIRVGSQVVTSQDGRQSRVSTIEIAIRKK
Nature of the data set: EMSA; 55°C; no ssRNA preference over dsRNA; EMSA: 20 mM HEPES-NaOH pH 7.0, 1 mM DTT, 100 ug/ml BSA, 6% glycerol, 30 min at 25, 37 or 55°C; gel in 0.5x TBE at the same temperature. The following applies: protein: recombinant; tags: none; chain copies: 2; label: 5' 32P; single strand.

Data set [4] deals with T4, Sis10b M20E/L24E/L27E/F60E (Sulfolobus islandicus REY15A, UniProt F0NHH1 1-97, M20E;L24E;L27E;F60E).
T4 sequence: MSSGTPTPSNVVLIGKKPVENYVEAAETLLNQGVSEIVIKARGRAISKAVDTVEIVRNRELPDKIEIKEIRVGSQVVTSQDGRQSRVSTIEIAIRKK
Nature of the data set: EMSA; 55°C; EMSA: 20 mM HEPES-NaOH pH 7.0, 1 mM DTT, 100 ug/ml BSA, 6% glycerol, 30 min at 25, 37 or 55°C; gel in 0.5x TBE at the same temperature. As to conditions: protein: recombinant; tags: none; chain copies: 2; label: 5' 32P on top strand; blunt.

In another data set the target is T5, Sis10b ΔN12 (Sulfolobus islandicus REY15A, UniProt F0NHH1 13-97, del1-12).
T5 sequence: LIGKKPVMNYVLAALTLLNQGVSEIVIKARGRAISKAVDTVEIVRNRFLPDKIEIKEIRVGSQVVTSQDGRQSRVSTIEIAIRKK
Described as above. As to conditions: protein: recombinant; tags: none; chain copies: 2; label: 5' 32P on top strand; blunt.

Data set [5] addresses T2, Sis10b K17R. The data set is described as above. As to conditions: protein: recombinant; tags: none; chain copies: 2; label: 5' 32P on top strand; blunt.
Data set [6] addresses T3, Sis10b K17A. Nature of the data set: EMSA; 37°C; 1.1-1.7-fold better than ssRNA; EMSA: 20 mM HEPES-NaOH pH 7.0, 1 mM DTT, 100 ug/ml BSA, 6% glycerol, 30 min at 25, 37 or 55°C; gel in 0.5x TBE at the same temperature. As to conditions: protein: recombinant; tags: none; chain copies: 2; label: 5' 32P on top strand; blunt.
The target in data set [7] is T1, Sis10b K16A. Described as above. The following applies: protein: recombinant; tags: none; chain copies: 2; label: 5' 32P on top strand; blunt.

B1: 44-nt ssRNA (t) (ssRNA)
RNA: UGACUUCCGCGCGUGAGCUCGAUUCCACAUACCCUAAAUCGCUC
Take B1: the binding result in the data set with Sis10b K16A [1], in the data set with Sis10b K17R [2] and in the data set with Sis10b K17A [3] was “binds” each time.

B2: 44-bp dsRNA (dsRNA)
RNA 1: UGACUUCCGCGCGUGAGCUCGAUUCCACAUACCCUAAAUCGCUC
RNA 2: GAGCGAUUUAGGGUAUGUGGAAUCGAGCUCACGCGCGGAAGUCA
For B2, the Kd is about 82.3 nM in data set [4], about 98.1 nM in the data set with Sis10b ΔN12 and about 28.2 nM with Sis10b K17R [5]. For the same molecule, the binding result with Sis10b K17A [6] and with Sis10b K16A [7] was “binds” in each case.

In general, Kd refers to a measure of binding affinity in units of concentration.
